In publication PMC6335420, “The cell cycle regulator GpsB functions as cytosolic adaptor for multiple cell wall enzymes” (Nature Communications, 2019):
Substitutions are numbered along the chain they refer to. Residues, ends and D or L forms follow the SMILES beside them. No end group written: not given here. *: point of attachment. Fluorescein(5-Mal) = O=C1OC2(c3ccc(O)cc3Oc3cc(O)ccc32)c2ccc(N3C(=O)CC(*)C3=O)cc21

What was measured:
BsGpsB1-68Lys32Glu = biological target: T1, BsGpsB1-68Lys32Glu (Bacillus subtilis, UniProt P0CI74, K32E); experiment: Fluorescence polarisation binding to BsGpsB1-68Lys32Glu; conditions: FP, relative to wild-type LmPBPA1 peptide
T1 construct: His6 (N, cleaved yes); made in house; host or cells: E. coli BL21(DE3)
Source text: 75 the BsGpsB5-64:BsPBP11-17 complex.

LmGpsB = experiment: BACTH (bacterial two-hybrid) interaction with LmGpsB; format: cell-based, Listeria monocytogenes; conditions: E. coli BTH101, 30 °C, photographed after 24 and 48 h; LmPBPA1 variants as T25-PBPA1ΔGT-TP
Source text: The BACTH system[63] was used for analysis of protein:protein interactions. First, LmGpsB was screened against LmPBPA1 (lmo1892) variants to identify residues in LmPBPA1 that are important for binding LmGpsB. To facilitate screening, we used a T25 fragment of Bordetella pertussis adenylate cyclase that had been fused to the N-terminal 91 amino acids of LmPBPA1 to create a T25-LmPBPA1 fusion containing the N-terminal cytoplasmic mini-domain and the transmembrane helix, but lacking lacking the extracellular glycosyltransferase and transpeptidase domains (T25-PBPA1ΔGT-TP) in plasmid pSH437[21]. LmPBPA1 residues that corresponded to the BsGpsB binding motif of BsPBP1 (Thr7, Arg8, Tyr11, Arg12) and additional positively charged amino acids (Lys14, Lys20, Lys21, Lys22, Lys25, Arg26, Lys28 and Arg29) in T25-PBP A1ΔGT-TP were replaced with alanine prior to screening against GpsB-T18. The pSH437 plasmid was mutated by Quikchange mutagenesis using the primer pairs SHW744/SHW754 (T7A, pSH485), SHW746/SHW747 (R8A, pSH486), SHW755/SHW756 (Y11A, pSH487), SHW748/SHW749 (R12A, pSH488), SHW757/SHW758 (K14A, pSH489), SHW759/SHW760 (K20A, pSH490), SHW761/SHW762 (K21A, pSH491), SHW763/SHW764 (K22A, pSH492), SHW765/SHW766 (K25A, pSH493), SHW767/SHW768 (R26A, pSH494), SHW769/SHW770 (K28A, pSH495) and SHW771/SHW772 (R29A, pSH496).
pJR164 and pJR169 were constructed by cloning sepF (primers JR334/JR335 and XbaI/KpnI digestion) into pKT25 and p25-N, respectively. pJR165 and pJR170 were generated by cloning ezrA into pKT25 and p25-N, respectively, using primers JR339/JR340 and XbaI/KpnI for digestion. pJR172 and pJR174 were obtained by cloning zapA into pKT25 and p25-N, respectively, using primers JR337/JR338 and PstI/KpnI. pJR213 was constructed by amplification of divIB with primers JR353/JR354 and cloning into pKT25 using XbaI/KpnI. pJR214 was generated by PCR amplification of divIC with primers JR355/JR356 and cloning into pKT25 using XbaI/KpnI. mreBH was amplified by PCR using oligonucleotides JR368/JR369 and cloned into pKT25 and p25-N using XbaI/KpnI, resulting in pJR233 and pJR236, respectively. pJR242 and pJR243 were obtained by cloning mreC into pKT25 and p25-N, respectively, using primers JR364/JR365 and PstI/KpnI digestion. pbpA2 was cloned into pKT25 using oligonucleotides SHW153/SHW154 and XbaI/KpnI to create pJR250. pbpB1 was amplified with primers SHW157/SHW158 and cloned with SmaI/EcoRI into pKT25, yielding pSH236. pbpB2 was amplified with primers SHW155/SHW156 and cloned into pKT25 after PstI/BamHI digestion, yielding plasmid pSH235. pbpB3 was amplified using primers SHW159/160 and cloned by PstI/BamHI digestion into pKT25, resulting in pSH237. Finally, pSH484 was obtained by removing the N-terminal domain from gpsB present on plasmid pSH226 in a PCR with the primer pair SHW752/SHW753.
Plasmids encoding the respective genes fused to the N- or C-termini of the T18- or the T25-fragment of the Bordetella pertussis adenylate cyclase were co-transformed into E. coli BTH101. Transformants were selected on LB agar plates containing ampicillin (100 µg^−1mL^−1), kanamycin (50 µg^−1mL^−1), X-Gal (40 µg^−1mL^−1) and IPTG (0.1 mM) and photographs were taken after 24 and 48h growth at 30 °C. The BACTH experiments in Fig. 2b and Supplementary Figure 3C, D were repeated at least twice.

[1] = biological target: T2, BsPBP1_(1-32), TAMRA-labelled at position 16 (B. subtilis, UniProt P39793 1-32, Ser16Cys, TAMRA (maleimide) at position 16); experiment: fluorescence polarisation; GpsB protein titrated into fluorescently labelled peptide; 10 mM Tris.HCl pH 8.0, 250 mM NaCl, 0.1% reduced Triton X-100; fit to a 1:1 interaction model; conditions: both partners purified
T2 construct: PBP1, Bacillus subtilis, residues 1-32; also called BsPBPA1_(1-32); BsPBP1A_(1-32); source: E. coli, His-tagged MBP fusion purified (Ni-NTA), labelled, TEV-cleaved, ultrafiltration
T2 peptide (looked up): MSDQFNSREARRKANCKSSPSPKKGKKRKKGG

BsGpsB_(1-68) = biological target: T3, BsGpsB_(1-68) (B. subtilis, UniProt P0CI74 1-68); experiment: as above; conditions: both partners purified
T3 construct: GpsB, Bacillus subtilis, residues 1-68; also called N-terminal domain of BsGpsB; source: E. coli, purified (Ni-NTA, thrombin, size exclusion)
T3 sequence (looked up): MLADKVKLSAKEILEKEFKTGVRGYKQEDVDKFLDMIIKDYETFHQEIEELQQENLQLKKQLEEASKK

[2] = Circular dichroism thermal unfolding of BsGpsB1-68 variants; format: physicochemical; conditions: CD at 222 nm vs temperature, 4.5 μM protein, 20 mM sodium phosphate (pH 7.8) 150 mM NaCl, 1 °C/min
Description: CD spectra were recorded on a JASCO J-810 spectropolarimeter with a PTC-4235 Peltier temperature controller using 1 mm path length quartz cuvettes. For full wavelength scans a scan speed of 10 nm^−1min^−1 and a response time of 4 s were used, the final spectra were the average of at least four measurements. BsPBP1_1-32 CD spectra were recorded at 4 °C in a buffer of 20 mM sodium phosphate, pH 7.3 at a peptide concentration of 25 μM. Peptide helical contents were estimated from molar ellipticities at 222 nm using the equation helix = [θ]222 nm / (39,500(1–2.57/n))[78] where n is the number of residues in the peptide. LmPBPA1_1-15 CD spectra were analysed at 40 μM in 20 mM sodium phosphate buffer, pH 7.8, for samples containing 0, 40 and 60% trifluoroethanol (TFE). For samples containing 80% TFE, 5 mM sodium phosphate buffer, pH 7.8, was used. The CD spectra of BsGpsB1-68 proteins were measured at a concentration of 4.5 μM in a buffer of 20 mM sodium phosphate (pH 7.8) 150 mM NaCl. For thermal melt experiments, a response time of 8 s and scan rate of 1 °C^−1min^−1 were used. All thermal melts were reversible as CD spectra recorded before and after the melts in the wavelength range 200–240 nm could be superimposed.

T1 sequence (P0CI74 1-68 K32E): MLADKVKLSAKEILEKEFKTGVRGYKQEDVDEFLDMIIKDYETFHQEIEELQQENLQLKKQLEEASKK

CSCC[C@H](NC(=O)[C@H](CO)NC(=O)CN)C(=O)N[C@@H](C)C(=O)N[C@@H](CC(=O)O)C(=O)N[C@@H](CCCCN)C(=O)N1CCC[C@H]1C(=O)N[C@@H](CCC(N)=O)C(=O)N[C@H](C(=O)N[C@@H](C)C(=O)N[C@@H](CO)C(=O)N[C@@H](CCC(N)=O)C(=O)N[C@@H](Cc1ccc(O)cc1)C(=O)N[C@@H](CCCNC(=N)N)C(=O)N[C@@H](CC(N)=O)C(=O)N[C@@H](CCCCN)C(=O)N[C@@H](CCC(N)=O)C(=O)N[C@@H](CO)C(=O)NCC(=O)NCC(=O)N[C@@H](CSC1CC(=O)N(c2ccc3c(c2)C(=O)OC32c3ccc(O)cc3Oc3cc(O)ccc32)C1=O)C(=O)N[C@@H](CCCCN)C(=O)O)[C@@H](C)O (stereo partly shown) [Fluorescein-LmPBPA11-20 Arg8Ala] (H-GSMADKPQTASQYRNKQSGGC(Fluorescein(5-Mal))K-OH; N-terminus and C-terminus assumed)
reduction in affinity for BsGpsB1-68Lys32Glu (BsGpsB1-68Lys32Glu): > 15 fold | BACTH interaction with LmGpsB (LmGpsB): significant negative impact

CSCC[C@H](NC(=O)[C@H](CO)NC(=O)CN)C(=O)N[C@@H](C)C(=O)N[C@@H](CC(=O)O)C(=O)N[C@@H](CCCCN)C(=O)N1CCC[C@H]1C(=O)N[C@@H](CCC(N)=O)C(=O)N[C@H](C(=O)N[C@@H](C)C(=O)N[C@@H](CO)C(=O)N[C@@H](CCC(N)=O)C(=O)N[C@@H](Cc1ccc(O)cc1)C(=O)N[C@@H](CCCNC(=N)N)C(=O)N[C@@H](CC(N)=O)C(=O)N[C@@H](CCCCN)C(=O)N[C@@H](CCC(N)=O)C(=O)N[C@@H](CCCNC(=N)N)C(=O)NCC(=O)NCC(=O)N[C@@H](CSC1CC(=O)N(c2ccc3c(c2)C(=O)OC32c3ccc(O)cc3Oc3cc(O)ccc32)C1=O)C(=O)N[C@@H](CCCCN)C(=O)O)[C@@H](C)O (stereo partly shown) [Fluorescein-LmPBPA11-20 Arg8AlaSer16Arg] (H-GSMADKPQTASQYRNKQRGGC(Fluorescein(5-Mal))K-OH; N-terminus and C-terminus assumed)
reduction in affinity for BsGpsB1-68Lys32Glu (BsGpsB1-68Lys32Glu): at least 10 fold

CSCC[C@H](NC(=O)[C@H](CO)NC(=O)CN)C(=O)N[C@@H](C)C(=O)N[C@@H](CC(=O)O)C(=O)N[C@@H](CCCCN)C(=O)N1CCC[C@H]1C(=O)N[C@@H](CCC(N)=O)C(=O)N[C@H](C(=O)N[C@@H](CCCNC(=N)N)C(=O)N[C@@H](CO)C(=O)N[C@@H](CCC(N)=O)C(=O)N[C@@H](Cc1ccc(O)cc1)C(=O)N[C@@H](C)C(=O)N[C@@H](CC(N)=O)C(=O)N[C@@H](CCCCN)C(=O)N[C@@H](CCC(N)=O)C(=O)N[C@@H](CO)C(=O)NCC(=O)NCC(=O)N[C@@H](CSC1CC(=O)N(c2ccc3c(c2)C(=O)OC32c3ccc(O)cc3Oc3cc(O)ccc32)C1=O)C(=O)N[C@@H](CCCCN)C(=O)O)[C@@H](C)O (stereo partly shown) [Fluorescein-LmPBPA11-20 Arg12Ala] (H-GSMADKPQTRSQYANKQSGGC(Fluorescein(5-Mal))K-OH; N-terminus and C-terminus assumed)
reduction in affinity for BsGpsB1-68Lys32Glu (BsGpsB1-68Lys32Glu): ~ 4 fold | BACTH interaction with LmGpsB (LmGpsB): significant negative impact

B1: BsGpsB_(1-68)^Asp35Ala (domain or fragment, B. subtilis, UniProt P0CI74 1-68, looked up)
chain: T3 sequence (looked up) with D35A
notes: GpsB, Bacillus subtilis, residues 1-68; source: E. coli, purified (Ni-NTA, thrombin, size exclusion)
fold reduction in affinity against wild type [1]: > 8 fold

B2: BsGpsB_(1-68)^Glu17Ala (domain or fragment, B. subtilis, UniProt P0CI74 1-68, looked up)
chain: T3 sequence (looked up) with E17A
notes: as for B1
fold reduction in affinity against wild type [1]: > 8 fold

B3: BsPBP1_(1-32)^Arg28Ala, TAMRA-labelled at position 16 (peptide, UniProt P39793 1-32, looked up)
peptide: MSDQFNSREARRKANC(TAMRA‑maleimide)KSSPSPKKGKKAKKGG
notes: PBP1, Bacillus subtilis, residues 1-32; source: E. coli, His-tagged MBP fusion purified (Ni-NTA), labelled, TEV-cleaved, ultrafiltration
binding result (BsGpsB_(1-68)): binds

B4: BsYrrS_(1-18), fluorescein-labelled (peptide, UniProt O32031 1-18, looked up)
peptide: MSNNQSRYENRDKRRKAN
modifications: also: fluorescein label, position not given here
notes: YrrS, Bacillus subtilis, residues 1-18; also called entire cytoplasmic mini-domain of BsYrrS
Kd (BsGpsB_(1-68)): 430 µM

B5: BsGpsB1-68^Glu17Ala: BsGpsB1-68 variant (protein)
chain: T3 sequence (looked up) with E17A
modifications: left off: His6, N-terminal, cleaved
notes: BsGpsB1-68 variant
impact of mutation on protein stability [2]: little impact on protein stability

B6: BsGpsB^Tyr25Phe: BsGpsB1-68 variant (protein)
chain: T3 sequence (looked up) with Y25F
modifications: left off: His6, end not stated, cleaved
notes: BsGpsB1-68 variant
impact of mutation on protein stability [2]: little impact on protein stability

B7: BsGpsB1-68^Asp31Ala: BsGpsB1-68 variant (protein)
chain: T3 sequence (looked up) with D31A
modifications: left off: His6, N-terminal, cleaved
notes: BsGpsB1-68 variant
impact of mutation on protein stability [2]: little impact on protein stability

B8: BsGpsB1-68^Asp35Ala: BsGpsB1-68 variant (protein)
chain: T3 sequence (looked up) with D35A
modifications: left off: His6, N-terminal, cleaved
notes: BsGpsB1-68 variant
impact of mutation on protein stability [2]: little impact on protein stability
